Measured values as given in IntAct's records for PubMed 29892012.

B1: Cyclic AMP-dependent transcription factor ATF-4 (Homo sapiens), P18848 (parent)
chain: MTEMSFLSSEVLVGDLMSPFDQSGLGAEESLGLLDDYLEVAKHFKPHGFSSDKAKAGSSEWLAVDGLVSPSNNSKEDAFSGTDWMLEKMDLKEFDLDALLGIDDLETMPDDLLTTLDDTCDLFAPLVQETNKQPPQTVNPIGHLPESLTKPDQVAPFTFLQPLPLSPGVLSSTPDHSFSLELGSEVDITEGDRKPDYTAYVAMIPQCIKEEDTPSDNDSGICMSPESYLGSPQHSPSTRGSPNRSLPSPGVLCGSARPKPYDPPGEKMVAAKVKGEKLDKKLKKMEQNKTAATRYRQKKRAEQEALTGECKELEKKNEALKERADSLAKEIQYLKDLIEEVRKARGKKRVP
B2: DNA topoisomerase 3-beta-1 (Homo sapiens), O95985 (parent)
chain: MKTVLMVAEKPSLAQSIAKILSRGSLSSHKGLNGACSVHEYTGTFAGQPVRFKMTSVCGHVMTLDFLGKYNKWDKVDPAELFSQAPTEKKEANPKLNMVKFLQVEGRGCDYIVLWLDCDKEGENICFEVLDAVLPVMNKAHGGEKTVFRARFSSITDTDICNAMACLGEPDHNEALSVDARQELDLRIGCAFTRFQTKYFQGKYGDLDSSLISFGPCQTPTLGFCVERHDKIQSFKPETYWVLQAKVNTDKDRSLLLDWDRVRVFDREIAQMFLNMTKLEKEAQVEATSRKEKAKQRPLALNTVEMLRVASSSLGMGPQHAMQTAERLYTQGYISYPRTETTHYPENFDLKGSLRQQANHPYWADTVKRLLAEGINRPRKGHDAGDHPPITPMKSATEAELGGDAWRLYEYITRHFIATVSHDCKYLQSTISFRIGPELFTCSGKTVLSPGFTEVMPWQSVPLEESLPTCQRGDAFPVGEVKMLEKQTNPPDYLTEAELITLMEKHGIGTDASIPVHINNICQRNYVTVESGRRLKPTNLGIVLVHGYYKIDAELVLPTIRSAVEKQLNLIAQGKADYRQVLGHTLDVFKRKFHYFVDSIAGMDELMEVSFSPLAATGKPLSRCGKCHRFMKYIQAKPSRLHCSHCDETYTLPQNGTIKLYKELRCPLDDFELVLWSSGSRGKSYPLCPYCYNHPPFRDMKKGMGCNECTHPSCQHSLSMLGIGQCVECESGVLVLDPTSGPKWKVACNKCNVVAHCFENAHRVRVSADTCSVCEAALLDVDFNKAKSPLPGDETQHMGCVFCDPVFQELVELKHAASCHPMHRGGPGRRQGRGRGRARRPPGKPNPRRPKDKMSALAAYFV
B3: Leucine-zipper-like transcriptional regulator 1 (Homo sapiens), Q8N653 (parent)
chain: MAGPGSTGGQIGAAALAGGARSKVAPSVDFDHSCSDSVEYLTLNFGPFETVHRWRRLPPCDEFVGARRSKHTVVAYKDAIYVFGGDNGKTMLNDLLRFDVKDCSWCRAFTTGTPPAPRYHHSAVVYGSSMFVFGGYTGDIYSNSNLKNKNDLFEYKFATGQWTEWKIEGRLPVARSAHGATVYSDKLWIFAGYDGNARLNDMWTIGLQDRELTCWEEVAQSGEIPPSCCNFPVAVCRDKMFVFSGQSGAKITNNLFQFEFKDKTWTRIPTEHLLRGSPPPPQRRYGHTMVAFDRHLYVFGGAADNTLPNELHCYDVDFQTWEVVQPSSDSEVGGAEVPERACASEEVPTLTYEERVGFKKSRDVFGLDFGTTSAKQPTQPASELPSGRLFHAAAVISDAMYIFGGTVDNNIRSGEMYRFQFSCYPKCTLHEDYGRLWESRQFCDVEFVLGEKEECVQGHVAIVTARSRWLRRKITQARERLAQKLEQEAAPVPREAPGVAAGGARPPLLHVAIREAEARPFEVLMQFLYTDKIKYPRKGHVEDVLLIMDVYKLALSFQLCRLEQLCRQYIEASVDLQNVLVVCESAARLQLSQLKEHCLNFVVKESHFNQVIMMKEFERLSSPLIVEIVRRKQQPPPRTPLDQPVDIGTSLIQDMKAYLEGAGAEFCDITLLLDGHPRPAHKAILAARSSYFEAMFRSFMPEDGQVNISIGEMVPSRQAFESMLRYIYYGEVNMPPEDSLYLFAAPYYYGFYNNRLQAYCKQNLEMNVTVQNVLQILEAADKTQALDMKRHCLHIIVHQFTKVSKLPTLRSLSQQLLLDIIDSLASHISDKQCAELGADI
B4: Cyclic AMP-dependent transcription factor ATF-4 (Homo sapiens), P18848 (parent)
chain: B1 chain
partner: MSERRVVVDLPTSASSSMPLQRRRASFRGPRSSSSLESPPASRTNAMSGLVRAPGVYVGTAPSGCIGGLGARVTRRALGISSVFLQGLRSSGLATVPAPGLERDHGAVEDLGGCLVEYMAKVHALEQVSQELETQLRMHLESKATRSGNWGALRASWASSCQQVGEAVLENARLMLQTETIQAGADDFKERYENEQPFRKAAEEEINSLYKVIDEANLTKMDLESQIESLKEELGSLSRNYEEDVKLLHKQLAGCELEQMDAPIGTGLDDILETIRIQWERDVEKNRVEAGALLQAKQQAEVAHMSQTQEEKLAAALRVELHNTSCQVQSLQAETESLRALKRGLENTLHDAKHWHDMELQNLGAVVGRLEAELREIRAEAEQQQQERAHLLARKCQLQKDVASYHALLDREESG

Variants of: B1
Conditions: with cc106_human CCDC106, Q9BWC9
cc106_human CCDC106, Q9BWC9, sequence (Q9BWC9 whole entry): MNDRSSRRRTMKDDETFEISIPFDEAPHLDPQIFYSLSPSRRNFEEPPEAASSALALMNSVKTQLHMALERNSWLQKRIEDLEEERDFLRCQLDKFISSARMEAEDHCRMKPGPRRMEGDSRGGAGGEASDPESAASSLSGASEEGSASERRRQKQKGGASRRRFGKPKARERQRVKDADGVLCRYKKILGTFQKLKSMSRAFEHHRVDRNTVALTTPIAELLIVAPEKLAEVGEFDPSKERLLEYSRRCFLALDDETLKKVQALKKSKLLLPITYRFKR

| effect of a mutation on the interaction | Variant |
| --- | --- |
| with no effect | MTEMSFLSSEVLVGDLMSPFDQSGLGAEESLGLLDDYLEVAKHFKPHGFSSDKAKAGSSEWLAVDGLVSPSNNSKEDAFSGTDWMLEKMDLKEFDLDALLGIDDLETMPDDLLTTLDDTCDLFAPLVQETNKQPPQTVNPIGHLPESLTKPDQVAPFTFLQPLPLSPGVLSSTPDHSFSFELGSEVDITEGDRKPDYTAYVAMIPQCIKEEDTPSDNDSGICMSPESYLGSPQHSPSTRGSPNRSLPSPGVLCGSARPKPYDPPGEKMVAAKVKGEKLDKKLKKMEQNKTAATRYRQKKRAEQEALTGECKELEKKNEALKERADSLAKEIQYLKDLIEEVRKARGKKRVP [L180F] |

Variants of: B1
Conditions: with ldoc1_human LDOC1, O95751
ldoc1_human LDOC1, O95751, sequence (O95751 whole entry): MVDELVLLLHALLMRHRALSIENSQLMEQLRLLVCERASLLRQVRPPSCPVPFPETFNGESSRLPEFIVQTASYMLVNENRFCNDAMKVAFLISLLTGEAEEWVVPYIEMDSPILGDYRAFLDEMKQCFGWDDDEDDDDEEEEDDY

| effect of a mutation on the interaction | Variant |
| --- | --- |
| with no effect | MTEMSFLSSEVLVGDLMSPFDQSGLGAEESLGLLDDYLEVAKHFKPHGFSSDKAKAGSSEWLAVDGLVSPSNNSKEDAFSGTDWMLEKMDLKEFDLDALLGIDDLETMPDDLLTTLDDTCDLFAPLVQETNKQPPQTVNPIGHLPESLTKPDQVAPFTFLQPLPLSPGVLSSTPDHSFSFELGSEVDITEGDRKPDYTAYVAMIPQCIKEEDTPSDNDSGICMSPESYLGSPQHSPSTRGSPNRSLPSPGVLCGSARPKPYDPPGEKMVAAKVKGEKLDKKLKKMEQNKTAATRYRQKKRAEQEALTGECKELEKKNEALKERADSLAKEIQYLKDLIEEVRKARGKKRVP [L180F] |

Variants of: B1
Conditions: with gps2_human GPS2, Q13227
gps2_human GPS2, Q13227, sequence (Q13227 whole entry): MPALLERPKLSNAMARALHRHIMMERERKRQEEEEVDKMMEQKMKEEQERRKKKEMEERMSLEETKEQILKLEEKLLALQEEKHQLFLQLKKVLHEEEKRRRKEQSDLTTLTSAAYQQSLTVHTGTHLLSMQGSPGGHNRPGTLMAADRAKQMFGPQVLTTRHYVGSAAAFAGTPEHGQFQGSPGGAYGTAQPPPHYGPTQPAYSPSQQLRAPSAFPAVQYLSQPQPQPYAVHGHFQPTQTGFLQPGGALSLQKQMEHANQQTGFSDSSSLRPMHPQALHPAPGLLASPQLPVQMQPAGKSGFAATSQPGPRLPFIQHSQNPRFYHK

| effect of a mutation on the interaction | Variant |
| --- | --- |
| with no effect | MTEMSFLSSEVLVGDLMSPFDQSGLGAEESLGLLDDYLEVAKHFKPHGFSSDKAKAGSSEWLAVDGLVSPSNNSKEDAFSGTDWMLEKMDLKEFDLDALLGIDDLETMPDDLLTTLDDTCDLFAPLVQETNKQPPQTVNPIGHLPESLTKPDQVAPFTFLQPLPLSPGVLSSTPDHSFSFELGSEVDITEGDRKPDYTAYVAMIPQCIKEEDTPSDNDSGICMSPESYLGSPQHSPSTRGSPNRSLPSPGVLCGSARPKPYDPPGEKMVAAKVKGEKLDKKLKKMEQNKTAATRYRQKKRAEQEALTGECKELEKKNEALKERADSLAKEIQYLKDLIEEVRKARGKKRVP [L180F] |

Variants of: B1
Conditions: with tthy_human TTR

| effect of a mutation on the interaction | Variant |
| --- | --- |
| with no effect | MTEMSFLSSEVLVGDLMSPFDQSGLGAEESLGLLDDYLEVAKHFKPHGFSSDKAKAGSSEWLAVDGLVSPSNNSKEDAFSGTDWMLEKMDLKEFDLDALLGIDDLETMPDDLLTTLDDTCDLFAPLVQETNKQPPQTVNPIGHLPESLTKPDQVAPFTFLQPLPLSPGVLSSTPDHSFSFELGSEVDITEGDRKPDYTAYVAMIPQCIKEEDTPSDNDSGICMSPESYLGSPQHSPSTRGSPNRSLPSPGVLCGSARPKPYDPPGEKMVAAKVKGEKLDKKLKKMEQNKTAATRYRQKKRAEQEALTGECKELEKKNEALKERADSLAKEIQYLKDLIEEVRKARGKKRVP [L180F] |

Variants of: B1
Conditions: with fbw1a_human BTRC

| effect of a mutation on the interaction | Variant |
| --- | --- |
| with no effect | MTEMSFLSSEVLVGDLMSPFDQSGLGAEESLGLLDDYLEVAKHFKPHGFSSDKAKAGSSEWLAVDGLVSPSNNSKEDAFSGTDWMLEKMDLKEFDLDALLGIDDLETMPDDLLTTLDDTCDLFAPLVQETNKQPPQTVNPIGHLPESLTKPDQVAPFTFLQPLPLSPGVLSSTPDHSFSFELGSEVDITEGDRKPDYTAYVAMIPQCIKEEDTPSDNDSGICMSPESYLGSPQHSPSTRGSPNRSLPSPGVLCGSARPKPYDPPGEKMVAAKVKGEKLDKKLKKMEQNKTAATRYRQKKRAEQEALTGECKELEKKNEALKERADSLAKEIQYLKDLIEEVRKARGKKRVP [L180F] |

Variants of: B2
Conditions: with spre2_human SPRED2, Q7Z698
spre2_human SPRED2, Q7Z698, sequence (Q7Z698 whole entry): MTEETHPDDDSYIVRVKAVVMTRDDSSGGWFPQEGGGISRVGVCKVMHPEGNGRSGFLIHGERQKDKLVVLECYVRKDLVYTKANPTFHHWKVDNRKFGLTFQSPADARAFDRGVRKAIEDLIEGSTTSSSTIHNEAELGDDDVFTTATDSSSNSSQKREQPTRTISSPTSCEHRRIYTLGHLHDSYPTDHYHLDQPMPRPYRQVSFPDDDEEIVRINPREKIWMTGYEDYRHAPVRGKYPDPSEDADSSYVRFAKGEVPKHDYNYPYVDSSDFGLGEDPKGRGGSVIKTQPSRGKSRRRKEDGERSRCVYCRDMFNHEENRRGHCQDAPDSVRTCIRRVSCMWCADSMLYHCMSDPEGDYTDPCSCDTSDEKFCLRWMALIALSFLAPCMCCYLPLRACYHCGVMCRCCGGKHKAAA

| effect of a mutation on the interaction | Variant |
| --- | --- |
| disrupting interaction strength | C666R |

Variants of: B3
Conditions: with gcp4_human TUBGCP4, Q9UGJ1
gcp4_human TUBGCP4, Q9UGJ1, sequence (Q9UGJ1 whole entry): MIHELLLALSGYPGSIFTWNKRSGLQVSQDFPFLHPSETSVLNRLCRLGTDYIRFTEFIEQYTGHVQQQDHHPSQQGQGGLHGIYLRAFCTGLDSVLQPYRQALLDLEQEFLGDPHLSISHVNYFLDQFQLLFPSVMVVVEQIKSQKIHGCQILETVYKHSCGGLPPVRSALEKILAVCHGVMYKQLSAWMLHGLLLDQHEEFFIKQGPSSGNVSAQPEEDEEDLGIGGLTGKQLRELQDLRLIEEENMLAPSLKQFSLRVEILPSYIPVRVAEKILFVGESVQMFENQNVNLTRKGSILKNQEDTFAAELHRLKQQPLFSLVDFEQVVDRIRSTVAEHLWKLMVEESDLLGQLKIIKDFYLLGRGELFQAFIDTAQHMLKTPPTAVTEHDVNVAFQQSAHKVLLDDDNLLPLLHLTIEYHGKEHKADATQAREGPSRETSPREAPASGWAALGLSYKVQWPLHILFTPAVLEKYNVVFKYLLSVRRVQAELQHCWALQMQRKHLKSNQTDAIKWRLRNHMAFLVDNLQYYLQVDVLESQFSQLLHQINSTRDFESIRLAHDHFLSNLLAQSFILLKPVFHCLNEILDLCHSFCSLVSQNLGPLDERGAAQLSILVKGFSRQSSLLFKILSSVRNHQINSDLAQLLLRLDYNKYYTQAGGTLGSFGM

| effect of a mutation on the interaction | Variant |
| --- | --- |
| with no effect | E721K |

Variants of: B4
Conditions: with bfsp2_human BFSP2, Q13515

| effect of a mutation on the interaction | Variant |
| --- | --- |
| with no effect | MTEMSFLSSEVLVGDLMSPFDQSGLGAEESLGLLDDYLEVAKHFKPHGFSSDKAKAGSSEWLAVDGLVSPSNNSKEDAFSGTDWMLEKMDLKEFDLDALLGIDDLETMPDDLLTTLDDTCDLFAPLVQETNKQPPQTVNPIGHLPESLTKPDQVAPFTFLQPLPLSPGVLSSTPDHSFSFELGSEVDITEGDRKPDYTAYVAMIPQCIKEEDTPSDNDSGICMSPESYLGSPQHSPSTRGSPNRSLPSPGVLCGSARPKPYDPPGEKMVAAKVKGEKLDKKLKKMEQNKTAATRYRQKKRAEQEALTGECKELEKKNEALKERADSLAKEIQYLKDLIEEVRKARGKKRVP [L180F] |
